Results reported in article PMC5349596.

Molecular target: Asp74 (UniProt position 74, WARYIDWVITT)
Test: UV-vis
Conditions: room temperature (approx. 25 °C); not stated (no added salt; low-millimolar buffer mixture; pH adjusted with concentrated H2SO4); 0.89 mM citric acid, 0.89 mM MES, 1.1 mM TES, 0.78 mM TAPS, 1.1 mM CHES and 0.33 mM CAPS; Folded, retinal-bound (nearly 100% all-trans), detergent-solubilised; dark or light adaptation during the titration not stated

Rubrobacter xylanophilus rhodopsin (RxR) (Rubrobacter xylanophilus DSM 9941)
pKa: 1.3 ± 0.17
